Data taken from patent EP4556028A1.

Target: recombinant SARS-CoV-2 spike RBD, WH-1 (Sino Biological 40592-V08B) (SARS-CoV-2 (wild type, WH-1)) (UniProt P0DTC2)
Test: SPR (Biacore T200), minibinder immobilised, monomeric RBD as analyte

Row | Substance | Kd [nM] | fold higher affinity than AHB2 [fold]
1 | recombinant minibinder AHB2 with N- and C-terminal Ser/Gly extensions and C-terminal Cys (designed binder) | 0.05 | 
2 | recombinant minibinder LCB1 with N- and C-terminal Ser/Gly extensions and C-terminal Cys (designed binder) | 0.005 | 10
